Laboratory results reported in US12611443B2, “Methods and compositions related to therapeutic peptides for cancer therapy” (THE UNIVERSITY OF CHICAGO, priority 2018, dated 2026).

Key:
cancer cells [1] = assay: ELANE internalization by cancer cells and effect of endocytosis inhibitor; type: cell-based
Description: (§1) FIGS. 1A-1K. ELANE cleaves CD95 to selectively kill cancer cells. (A): Heatmap summary of ELANE's effects on survival, stress, and apoptosis pathways in cancer cells and healthy cells. (B-C): Cancer cells were treated with ELANE (100 nM) and CD95 cleavage was assessed by western blotting using anti-N-terminal (B) or anti-C-terminal antibodies (C). *, lower molecular weight CD95 fragment. (D): Cancer cells or non-cancer cells were transduced to overexpress CD95 proteins, and effects on ELANE-mediated apoptosis were quantified by ANXAS at 30 min. n=2/group. See FIG. 1I for transduction and CD95 over-expression. (E): Cleavage of recombinant human CD95 N-terminal (aa 1-173) or C-terminal (aa 212-335) proteins by ELANE was assessed by SDS-PAGE and Coomassie blue staining. (F): Bands from (E) were digested with trypsin and analyzed by mass spectrometry to identify putative ELANE cleavage sites (i.e., peptides with non-tryptic ends). Major non-tryptic peptides were quantified by ion chromatograms. (G): Schematic of ELANE cleavage sites in CD95. […] (H): Cleavage of recombinant peptides corresponding to aa 214-231 and aa 317-335 in CD95 by ELANE was monitored by mass spectrometry. (I): Cancer cells or non-cancer cells were treated with fluorescein-labeled ELANE for 10 min and uptake was visualized by immunofluorescence. (J): ELANE catalytic activity in cancer cell lysates following exposure to ELANE for 30 mins in the presence and absence of Dynasore (60 μM endocytosis inhibitor). Effect of Dynasore on cancer cell killing capability of ELANE (measured by calcein-AM). n=6/group. (K): Cancer cells or non-cancer cells were transduced to overexpress various CD95 proteins, and cell viability in the absence of ELANE was determined by calcein-AM. n=10/group. *, p<0.05 Student's t-test.

[2] = tested on: human/murine cancer cells; assay: In vitro cell viability of cancer cells (calcein-AM, CASP3, ANXA5); type: cell-based; settings: catalytic inactivation confirmed
Excerpt: Cell lines. The ovarian cancer cell lines—CAOV3, OVCAR3, OVCAR4, OVCAR5, A2780, A2780/CP70, HeyA8, TykNu, SKOV3, ID8, and ID8p53-/- were a gift from Dr. Ernst Lengyel, University of Chicago. The breast cancer cell lines—MDA-MB-231, MDA-MB-231.BM1, MCF-7, M6C, E0771, and E0771.LMB were a gift from Dr. Marsha Rosner, University of Chicago. The colon carcinoma cell line RKO, glioblastoma cancer cell line T98G, osteosarcoma cell lines U-2OS and Saos-2, and the hepatocellular carcinoma cell line HepG2 were a gift from Dr. Kay McLeod, University of Chicago. The lung cancer cell line NCI-H552 was a gift from Dr. Stephanie Huang, University of Chicago, and A549 and LLC1 cells were purchased from ATTC. The melanoma cell lines—B16F10, Mel888, Mel1106, and SK-MEL-28 cells were a gift from Dr. Thomas Gajewski, University of Chicago. The pancreatic cancer cell line PANC1 was a gift from Dr. Yamuna Krishnan, University of Chicago. The leukemia cell line K562 was a gift from Dr. Amittha Wickrema, University of Chicago.
The prostate cancer cell lines—CWR22Rv1, LAPC4, and LNCaP were a gift from Dr. Donald Vander Griend, University of Chicago. The neuroblastoma cell lines—SK-N-BE(2) and NBL-WN cells were a gift from Dr. Lucy Godley, University of Chicago.
Neutrophil media collections. Freshly isolated human or murine neutrophils were plated in serum-free DMEM for 24 h. Conditioned media was collected, spun at 500×g for 5 min, and media protein levels were determined with a Bradford assay (Biorad).
PMN media manipulations. For boiling, PMN media was boiled at 95° C. for 5 min and spun at 15,000×g for 10 min to remove precipitated proteins. For dialysis, PMN media was placed into a Slide-a-Lyzer™ cassette (3.5 kDa cutoff, ThermoFisher Scientific) and dialyzed against 2×4L of PBS at 4° C. for 4 h. For PMSF-inactivation, PMN media was treated with PMSF (1 mM, Sigma) or A1AT (42 nM, Athens Research & Technology) and incubated at room temperature for up to 2 h. Residual PMSF was eliminated with a PD-10 desalting column (GE Healthcare Life). Inhibition of ELANE catalytic activity was confirmed using a chromogenic substrate activity assay (see below). For serum-spiking experiments, human, mouse, or fetal bovine serum (1% or 10%) was added to PMN media prior to or after exposing cancer cells. For immune-depletion studies, ELANE or ECP were immunoprecipitated using anti-ELANE (N2C3, GeneTx) or anti-ECP (MB S2535165, MyBioSource) coupled to Pierce™ Protein A/G Magnetic Beads (ThermoFisher Scientific).
(§2) In vitro cell viability assays. […] Luminescence was measured using a Victor X3 luminometer (PerkinElmer).

[3] = tested on: tumors (MDA-MB-231, A549, MEL888, M1, 4195, E0771, LLC1, B16F10); assay: Intra-tumoral treatment of tumor models (xenograft, PDX, syngeneic); type: in vivo, mice; settings: E0771 TNBC model, IT, 12 μg/day
Description: Tumor inoculation and treatment. MDA-MB-231 cells (2×10^6), A549 cells (2×10^6) with Matrix Type 3), or MEL888 cells (2×10^6 with Matrix Type 3) were injected into athymic nude mice (Charles River); M1 or 4195 cells (50,000) were injected into NOD.SCID mice (JAX); and E0771 cells (0.5×10^6), LLC1 cells (0.5×10^6), or B16F10 cells (1×10^6), were injected into C57BL/6 mice (JAX). For TNBC models (MDA-MB-231, E0771, M1, 4195), cells were injected into the 4th mammary fat pad of the right ventral side. For all other models (A549, LLC1, MEL888, B16F10), cells were injected into the flank. Once tumors reached ˜100 mm^3, ELANE or PMSF-ELANE (11.6 μg/100 μL), or neutrophil medias or HSA (50 μg/100 μL) were delivered IT once/day for 5 days. Tumor volume was assessed by calipers, and experiments were terminated when tumor volume in control mice reached >1000 mm^3.
Tumor immunohistochemistry. Tumors were fixed in 4% paraformaldehyde in PBS for 24 h, embedded in paraffin blocks, and sectioned (5 μm). Slides were stained with cCASP3 (9661) and cPARP (9625) antibodies from Cell Signaling Technology. Signals were developed using the VECTASTAIN ABC kit (Vector Laboratories) or fluorescently-labeled secondary antibodies (melanoma models). For the TUNEL assay, staining was performed with the DeadEnd™ colorimetric or fluorometric TUNEL systems (Promega). Cell nuclei were labeled with haematoxylin or Hoechst 33342 (ThermoFisher Scientific). Images were obtained with a Nikon Eclipse Ti2 microscope and analyzed using NIS-Elements software.

cancer cells [4] = assay: CD95 protein overexpression in cancer cells, viability in absence of ELANE (calcein-AM); type: cell-based, human; settings: transient overexpression
Description: as §1, §2
(§3) CD95 overexpression studies. Polycistronic adenoviral vectors were prepared to express the human and mouse CD95 sequences followed by the Encephalomyocarditis virus (EMCV) internal ribosome entry site and dTomato sequence under the control of the cytomegalovirus (CMV) promoter (VectorBuilder). Human and murine cancer cells or normal or non-cancer cells were transduced to over-express full-length CD95, N-terminal CD95 (human: aa 1-209; mouse: aa 1-204), C-terminal CD95 (human: aa 212-335; mouse: aa 204-327), or C-terminal CD95 that mimicked ELANE cleavage at site 1 (human: aa 221-335), site 2 (human: aa 212-331), or both sites (aa 221-331). Cancer cells or normal or non-cancer cells were transduced with adenoviruses at an MOI of 50-250 depending on cell type, and expression of dTomato and CD95 (human: 558814; mouse, mouse: 565130, BD Biosciences) were confirmed by flow cytometry. A vector encoding GFP (Vector Builders) was used as a control.

MDA-MB-231 cells = assay: Doxycycline-inducible Tet-on expression of C or C1-2 in MDA-MB-231 cells; type: cell-based, human; settings: Tet-on MDA-MB-231, doxycycline 0.2 or 2 μg/mL, 72 h, Calcein AM
Description: FIG. 4 Inducible Expression System. Scheme of doxycycline inducible Tet-on system to express either C (aa. 157-335) or C1-2 (aa. 221-331). C1-2 (DD containing fragment) upon addition of doxycycline (both in vitro and in vivo).
FIG. 5 Confirmation of C1-2 expression and cancer cell selective killing. (A) Tet-on C or C1-2 transduced MDA-MB-231 cells were treated with 2 μg/mL doxycycline (2 μg/mL) for 24 h. Cell lysates were collected for western blot. Confirming the expression of C or C1-2 expression. (B) Tet-on C or C1-2 transduced MDA-MB-231 cells were treated with 0.2 or 2 μg/mL doxycycline for 72 h. Cell viability was measured by Calcein AM. […] (C) Tet-on C1-2 transduced MCF10A cells were treated with 2 μg/mL doxycycline. Cell viability was measured at various time points by Calcein AM.
FIG. 6 In vitro testing MDA-MB-231 cell death post C1-2 induction. (A) Various single colony of Tet-on C1-2 transduced MDA-MB-231 cells were treated with 2 μg/mL doxycycline (2 μg/mL) for 72 h. Cell viability was measured by Calcein AM. Different colonies have different susceptibility of death post C1-2 induction. (B) C1-2 expression of various single colony of Tet-on C1-2 transduced MDA-MB-231 cells post doxycycline treatment were measured by western blot (C), and the level at 24 h was correlated with % death (normalized by full length). […] (C) Immunoblot of C1-2 and full length (FL) CD95 expression for various colony.

[5] = tested on: human and murine cancer cells; assay: CD95 overexpression, ELANE-mediated apoptosis (ANXA5); type: cell-based; settings: ELANE 40 nM, ANXA5 at 30 min
Description: FIGS. 2A-2D Overexpressing CD95 proteins accelerates cancer cell killing by ELANE. Polycistronic adenoviral vectors were prepared to express the human and mouse CD95 sequences followed by the Encephalomyocarditis virus (EMCV) internal ribosome entry site and dTomato sequence under the control of the cytomegalovirus (CMV) promoter. Human and murine cancer cells or non-cancer cells were transduced to over-express full-length CD95, N-terminal CD95 (human: aa 1-209; mouse: aa 1-204), or C-terminal CD95 (human: aa 212-335; mouse: aa 204-327). (A): Transduction efficiency quantified by dTomato (Left). CD95 levels in dTomato− and dTomato+ cells quantified by geometric mean (MFI) (Middle). ANXA5 levels in dTomato− and dTomato+ cells 30 min after treatment with ELANE (40 nM) (Right). Representative data for A549 cells are shown. (B-C): Quantification of transduction efficiency (B) and relative CD95 overexpression (C) for cancer cells and non-cancer cells. (D): Quantification of ANXA5 levels following ELANE treatment (40 nM, 30 min) for mouse cancer cell lines (E0771, B16F10). *, p<0.05 Student's t-test.
as §2, §3

For `O=C(N/N=C/c1ccc(O)c(O)c1)c1cc2ccccc2cc1O` [Dynasore], the “effect on PMN media-mediated killing” value (cancer cells [1]; Dynasore) was “protected cancer cells from PMN media-mediated killing”, the “effect on ELANE uptake” value (cancer cells [1]; Dynasore 60 μM) was “attenuated ELANE uptake” and the “effect on ELANE-induced apoptosis of cancer cells” value (cancer cells [1]; Dynasore 60 μM) was “protected cancer cells from apoptosis”.

B1: PMSF-ELANE: ELANE inactivated with PMSF (or A1AT) (protein, UniProt P08246 30-267, looked up)
Neutrophil elastase: IVGGRRARPHAWPFMVSLQLRGGHFCGATLIAPNFVMSAAHCVANVNVRAVRVVLGAHNLSRREPTRQVFAVQRIFENGYDPVNLLNDIVILQLNGSATINANVQVAQLPAQGRRLGNGVQCLAMGWGLLGRNRGIASVLQELNVTVVTSLCRRSNVCTLVRGRQAGVCFGDSGSPLVCNGLIHGIASFVRGGCASGLYPDAFAPVAQFVNWIDSIIQRSEDNPCPHPRDPDPASRTH
modifications: PMSF-inactivated
With B1 the “cancer cell killing after inactivation with PMSF or A1AT” value [2] was “could no longer kill cancer cells” and the “therapeutic benefit, dose finding” value [3] was “did not produce unexpected worsening”.

B2: fluorescein-labeled ELANE: fluorescein-labeled ELANE used for uptake (protein, UniProt P08246 30-267, looked up)
Neutrophil elastase: IVGGRRARPHAWPFMVSLQLRGGHFCGATLIAPNFVMSAAHCVANVNVRAVRVVLGAHNLSRREPTRQVFAVQRIFENGYDPVNLLNDIVILQLNGSATINANVQVAQLPAQGRRLGNGVQCLAMGWGLLGRNRGIASVLQELNVTVVTSLCRRSNVCTLVRGRQAGVCFGDSGSPLVCNGLIHGIASFVRGGCASGLYPDAFAPVAQFVNWIDSIIQRSEDNPCPHPRDPDPASRTH
modifications: fluorescein label
notes: fluorescein-labeled ELANE used for uptake
For B2, the “uptake by cancer cells” value (cancer cells [1]; 10 min, immunofluorescence) was “rapidly internalized”.

B3: C peptide: C-terminal CD95 peptide containing both cleavage sites (aa. 212-335); Tet-on C printed as aa. 157-335 (protein)
chain: SPTLNPETVAINLSDVDLSKYITTIAGVMTLSQVKGFVRKNGVNEAKIDEIKNDNVQDTAEQKVQLLRNWHQLHGKKEAYDTLIKDLKKANLCTLAEKIQTIILKDITSDSENSNFRNEIQSLV
For B3, the “cancer cell death/toxicity on expression in the absence of ELANE” value (cancer cells [4]) was “not toxic”, the “cell death/apoptosis on doxycycline-induced expression” value (MDA-MB-231 cells) was “did not” and the “cell death/apoptosis on doxycycline-induced expression” value (MDA-MB-231 cells; listed as C) was “not C caused MDA-MB-231 cell death”. For the same molecule, the “effect of overexpression on ELANE-mediated killing” value [5] was “accelerated ELANE-mediated killing in human cancer cells” and the “effect of overexpression on ELANE-mediated killing” value ([5]; listed as aa. 212-335 of SEQ ID NO:1) was “accelerated ELANE-mediated killing in both human and murine cancer cells”.
